Molecular target: recombinant full-length PfCSP (Plasmodium falciparum circumsporozoite protein, strain NF54) (Plasmodium falciparum NF54, UniProt P19597)
Sequence (P19597 20-375): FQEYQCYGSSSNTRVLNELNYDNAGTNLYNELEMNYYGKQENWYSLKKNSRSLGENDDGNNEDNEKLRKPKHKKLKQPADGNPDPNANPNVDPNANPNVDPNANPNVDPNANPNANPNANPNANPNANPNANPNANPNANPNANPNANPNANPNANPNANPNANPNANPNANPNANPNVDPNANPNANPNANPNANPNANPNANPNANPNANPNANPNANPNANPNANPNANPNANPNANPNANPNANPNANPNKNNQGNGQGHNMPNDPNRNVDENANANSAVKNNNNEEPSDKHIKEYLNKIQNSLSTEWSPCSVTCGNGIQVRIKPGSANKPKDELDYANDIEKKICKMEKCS

| Binder | binding result |
| --- | --- |
| CL-510484 (antibody, V domains shown) VH: QVQLVESGGGVVQPGRSLRLSCAASGFTFSNYGMNWVRQAPGKGLEWMAVIWYDGSNKYYGDSVKGRFTISRDNSKNTLYLQMISLRAEDTAVYFCAKSGEFYGSGSHFDYWGQGTLVTVSS VL: not shown | binds |
| CL-510433 (antibody, V domains shown) VH: QVQLVESGGGVVQPGRSLRLSCVASGFTFSSYGMHWVRQAPGKGLEWVAVIWYDGSNKYYADSVKGRFTVSRDNSKNTLYLQMNSLRAEDTAVYYCARVYYYGSGSYSPYYYALDVWGHGTTVTVSS VL: EIVMTQSPATLSVSPGERATLSCRASQSISSNLAWYQQKPGQAPRLLIYGASIRATGIPARFSGSGSGTEFTLSISILQSEDFAIYYCQQYNNWWTFGQGTKVEIK | binds |
| CL-511073 (antibody, V domains shown) VH: QVQLVESGGGVVQPGRSLRLSCAASGFSFSSHGMHWVRQAPGKGLEWVSIIWYDGSNKFYADSVKGRFTISRDNSKNTLYLQMNSLRAEDTAVYYCARDGYDVLTGHYNWFDPWGQGTLVTVSS VL: EIVMTQSPATLSVSPGERATLSCRASQSVSSKLAWYQQKPGQAPRLLIYGASTRATGIPARFSGSGSGTDFTLTISSLQSEDFAVYYCQQYNNWWTFGHGTKVEIK | binds |
| CL-510082 (antibody, V domains shown) VH: QVQLVESGGGVVQPGKSLRLSCVASGFTFSNNGMHWIRQAPGKGLEWVAIIWYDGSNKFYADSVKGRFTISRDNSHNTLYLQMNSLRAEDTAVYYCARDRMFGSGTWNYFDPWGQGTLVTVSS VL: EIVLTQSPATLSLSPGERATLSCRASQSVSTYLAWYQQKPGQAPRLLIYDASNRATGIPARFSGSGSGTDFTLTISSLEPEDFAVYYCQQRSYWWTFGQGTKVEIK | binds |
| CL-510596 (antibody, V domains shown) VH: QVQLEESGGGVVQPGRSLRLSCTATGFTFSNYGMHWVRQAPGKGLEWVAVIWYDGSNKYYVDSVKGRFTISRDNSKNTLYLQMNSLRAEDTAVYYCARDGGYYGSGSYWWFDSWGQGTLVTVSS VL: not shown | binds |
| CL-510514 (antibody, V domains shown) VH: QVQLVESGGGVVQPGRSLRLSCTTSGFTFSNFGMHWVRQAPGKGLEWVALIWYDGSNKYYADSVKGRFTISRDNSKNTLYLQMNGLRAEDTAVYYCARDGGYYYGSGGAFDIWGQGTMVTVSS VL: not shown | binds |
| CL-510499 (antibody, V domains shown) VH: QVQLVESGGGLVQPGRSLTLSCAASGFTFSNYGMHWVRQTPGKGLEWVALIRYDGSYKFYADSVKGRFTISRDNSKNTLYLQMNSLRAEDTAIYFCARDGDYSNSAGDFDYWGQGTLVTVSS VL: EIVLTQSPGTLSLSPGERATLSCRASQSVSSTNLAWYQQKPGQAPRLLIYGVSSRATGIPDRFSGSGSGTDFTLTINRLEPEDFAVYYCQQHGRSFTFGPGTKVEIK | binds |
| CL-510427 (antibody, V domains shown) VH: QVQLVESGGGVVQPGRSLRLSCAASGFTFSNYGMHWVRQAPGKGLEWVAVIWYDGSKEDYADSVKGRLTISRDNSKNTLYLQMNSLRAEDTAVYYCARDGDSRGWYAFDYWGQGTLVTVSS VL: not shown | binds |
| CL-510469 (antibody, V domains shown) VH: QVQLVESGGGVVQPGRSLRLSCAASGFTFSSYGMHWVRQAPGKGLEWVAVIWYDGSNQFYTDSVKGRFTISRDNSKNTLYLHMNSLRVEDTAIYYCARDGDYSSSAGDFDYWGQGTLVTVSS VL: not shown | binds |
| CL-511771 (antibody, V domains shown) VH: QVQLVESGGGVVQPGRSLRLSCAASGFTFSNSGMHWVRQAPGKGLEWVAIIWYDGSNKYYAESMKGRFTISRDNSKNTLYLQMNSLRAEDTAVYYCARDGTTNAFDLWGQGTMVTVSP VL: not shown | binds |
| CL-510458 (antibody, V domains shown) VH: QVQLVESGGGVVQPGRSLRLSCAASGFTFNNYGMHWVRQAPGKGLEWVAVIWYDGSNKFHADSVKGRFTISRDNSKNTLYLQMNSLRAEDTALYYCARVYYYDSGSYLDYWGQGTLVTVSS VL: DIQMTQSPSSVSASVGDRVTITCRASQGISRWLAWYQQKPGKAPKLLIYAASSLQSGVPSRFSGSGSGTDFTLTISSLQPEDFATYCCQQANNFPWTFGQGTKVEIK | binds |
| CL-510632 (antibody, V domains shown) VH: QVQLVESGGGVVQPGRSLRLSCAASGFTFSNYGMHWVRQAPGKGLEWVAVIWYDGSNKFYADSVKGRFTISRDNSKNTLYLQTNSLRAEDTAVYYCARVYYYDSGNYLDYWGQGTLVAVSS VL: DIQMTQSPSSVSASVGDRVTITCRASQGINNCLAWYQQKPGKAPKLLIYAASSLQSGVPSRFSGSGSGTDFTLTISNLQPEDFATYCCQQANSFPWTFGQGTKVEIK | binds |
| CL-510020 (antibody, V domains shown) VH: QVQLVESGGGVVQPGRSLRLSCAASGFTFSSFGMYWVRQAPGKGLEWVALIWYDGSNQYYADSVKGRFTISRDNSKNTLYLQMNSLRAEDTAVYYCARAGYFYGSGSPLDYWGQGTLVTVPS VL: DIQMTQSPSTLSASVGDGVTITCRASQSISSWLAWYQQKPGKAPKLLIYMASSLESGVPSRFSGSGSGTEFTLTISSLQPDDFATYYCQQYYNYWTFGQGTKVEIK | binds |
| CL-510373 (antibody, V domains shown) VH: QVQLVESGGGVVQPGRSLKLSCAASGFTFSSYGMHWVRQAPGRGLEWVSIIWYDGSNKFYSDSVQGRFTISRDDSKNTLYLQMNSLRAEDTAMYYCAMVANYTISSGAFDIWGHGTMVTVSS VL: DIQMTQSPSTLSASVGDRVTITCRASQSISNWLAWYQQKSGKAPKLLIYKASSLESGVPSRFSGSGSGTEFTLTISSLQPDDFATYFCQQYKTYWTFGQGTKVEIK | binds |
| CL-511296 (antibody, V domains shown) VH: QVQLVASGGGVVQPGRSQRLSCAASGFTFSNYGMHWVRQSPGRGLEWVAIIWYDGSNKFYADSVKGRFTISRDNSRNTLFLQMNSLRAEDTAIYYCAKSEERTSDNYFKYGMDVWGQGTTVIVST VL: DIQMTQSPSTLSASVGDRVTITCRASQSISSWLAWYQQKPGKAPKLLIYKASNLESGVPSRFSGSGSGTEFTLSISNLQPDDFATYFCQQYTSYWTFGQGTKVEIK | binds |
| CL-510416 (antibody, V domains shown) VH: QVQLVESGGGVVQPGRSLRLSCEASGFTFSNYGMHWVRQGPGKGLEWVALMWYDGSNKYYSDSVKGRFTISRDNSKSTLYLQMNSLRAEDTAVYYCARPITGNTHSKYTMDVWGQGTTVTVSS VL: DIQMTQSPSTLSASVGDRVTITCRASQSISSWLAWYQQKPGKAPKLLIYKASTLESGVPSRFSGSGSGTEFTLTISSLQPDDFATYFCQQYNSYWTFGQGTKVEIK | binds |
| CL-511026 (antibody, V domains shown) VH: QVQLVESGGGVVQPGRSLRLSCAASGFTFSNFGMHWVRQAPDRGLEWVSIIWYDGSNKFYADSVKGRFTISRDNSKNTLFLQMDSLRAEDTAVYYCAKAEMRTSDYYNYGMDVWGQGTTVTVSS VL: DIQMTQSPSTLSASVGDRVTITCRASQSISSWLAWYQQKPGKAPKLLIYKASSLESGVPSRFSGSGSATEFTLTIRSLQPDDFATYYCQQYYSYWTFGQGTKVEIN | binds |
| CL-510487 (antibody, V domains shown) VH: QVQLEESGGGVVQPGRSLRLSCTATGFTFSNYGMHWVRQAPGRGLEWVGVIWYDGSNKFYVDSVKGRFTISRDNSKNTLYLQMNSLRAEDTAVYYCARDGGYYGSGSYWWFDSWGQGTLVTVSS VL: DIQMTQSPSTLSASVGDRVTITCRASQSISSWLAWYQQKPGKAPKLLIYKASSLERGVPSRFSGSGSGTEFTLTISSLQPDDFATYYCQQYNRYCSFGQGTKLEIK | binds |
| CL-511776 (antibody, V domains shown) VH: QVQLVESGGGVVQPGRSLTLSCAASGFTFSNFGMHWVRQAPGKGLEWMAVIWYDGNNEFYADSVKGRFTISRDNSKNMLYLHMNSLRAEDTAIYYCAREGDYSASGSHWLFDPWGQGTQVTVSS VL: DIQMTQSPSTLSASVGDSITITCRASQSINIWLAWYQQKPGKAPNLLIYKASSLESGVPSRFSGSGSGTEFTLTINSLQPDDFATYYCQQYNNYVTFGGGTKVEIK | binds |
| CL-510418 (antibody, V domains shown) VH: QVQLVESGGGVVQPGQSLRLSCEASGFTFSNYGMHWVRQAPVKGLEWVAIIWFDGSYKYYADSVKGRFTVSRDNSKNTLYLQMDSLRAEDTAVYYCARARKGQRSDYYGSETSYTFDNWGQGTLVTVSS VL: DIQMTQSPSTLSASVGDRVTITCRASQSINSWLAWYQQKPGKAPKFLIYKASILESGIPSRFSGSGSGTEFTLTISSLQPDDFATYYCQQYNSYWTFGQGTKVEIK | binds |
| CL-510453 (antibody, V domains shown) VH: QVQLVESGGGVVQPGRSLRLSCAASGFTFSSYGMHWVRQAPDKGLEWVAIIWYDGSKKYYADSVKGRFTVSRDNSKNTLYLQMNSLRAEDTAVFYCARSFDYESGGFYSFDYWGQGTLVSVSS VL: DIQMTQSPSTLSASVGDRVTITCRASQSISSWLAWYQQKPGKAPKLLIYRASSLASGVPSRFSGSGSGTEFTLTISSLQPDDFATYYCQQYNSYWTFGQGTKVEFK | binds |
| CL-510640 (antibody, V domains shown) VH: QVQLVESGGGVVQPGRSLRLSCAASGFTFSNYGMHWVRQAPVKGLEWVAIIWYDGSNKFYADSVRGRFIISRDNSKNTLYLQMNSLRAEDTAVYFCARAREGQNSDYYGSETSYTFDSWGLGTLVTVSS VL: DIQMTQSPSTLSASVGDRVTITCRASQSISSWLAWYQQKPGKAPKFLIYKASSLESGVPSRFSGSGSGTEFTLTISSLQPDDFATYYCQQYKSYWTFGQGTKVEIK | binds |
| CL-510092 (antibody, V domains shown) VH: QVQLVESGGGVVQPGTSLRLSCAASGFTFSNFGMYWVRQAPGKGLEWVALIWYDGSNKFYEDSVKGRFTISRDNSKNTLYLQMNSLRAEDTAVYYCAKDGGYSGPGKYGFFRHWGQGSLVTVSS VL: DIQLTQSPSTLSASVGDRVTITCRASQSISNWLAWYQQKPGKAPKLLIYKASSLESGVPSRFSGNGSGTEFTLTISSLQPDDFATYYCHQYNFYWTFGQGTKVEIK | binds |
| CL-510700 (antibody, V domains shown) VH: QVQLVESGGGVVQPGRSLRLSCAASGFTFSDFGMHWVRQTPGKGLEWVAIIWYDGSNKFYADSVKGRFTISRDNSKNTLFLQMNSLRAEDTAVYYCARSGVYYGSGSHFDYWGQGTLVTVSS VL: DIQMTQSPSTLSASVGDRVTITCRASQSISSWLAWYQLKPGKAPKLLIYKASNLETGVPLRFSGSGSGTEFTLTISSLQPDDFATYYCQQYNSYLTFGQGTKVEIK | binds |

From PMC10720262 (Cell Reports, 2023)
